In assay [1] the target is T1, BACE2 (Homo sapiens, UniProt Q9Y5Z0).
T1 construct: made in house; host or cells: E. coli BL21(DE3)
T1 sequence (Q9Y5Z0 20-465): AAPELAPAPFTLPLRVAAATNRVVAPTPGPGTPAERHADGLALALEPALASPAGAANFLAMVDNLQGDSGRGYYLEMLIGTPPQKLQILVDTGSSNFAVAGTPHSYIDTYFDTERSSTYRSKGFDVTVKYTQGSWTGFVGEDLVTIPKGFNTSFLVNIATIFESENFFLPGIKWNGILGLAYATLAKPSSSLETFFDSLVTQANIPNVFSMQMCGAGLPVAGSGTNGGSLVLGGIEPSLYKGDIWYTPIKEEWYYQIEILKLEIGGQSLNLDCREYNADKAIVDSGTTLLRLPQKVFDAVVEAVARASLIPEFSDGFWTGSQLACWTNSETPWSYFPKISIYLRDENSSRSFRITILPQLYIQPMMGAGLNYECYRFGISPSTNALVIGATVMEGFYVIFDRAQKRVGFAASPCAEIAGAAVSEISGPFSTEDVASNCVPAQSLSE
Nature of the assay: FRET peptide cleavage assay, BACE2 activity on peptide substrates. The assay is classed as biochemical. The following applies: pH 4.5, substrate 5 μM, FIG. 7 and FIG. 9. On the procedure:
The FRET assay was performed essentially as described in Grüninger-Leitch et al. [Substrate and inhibitor profile of BACE (beta-secretase) and comparison with other mammalian aspartic proteases. Journal of Biological Chemistry (2002) 277(7) 4687-93]. In summary, a peptide is designed that is cleaved by the protease. The peptide is labelled with dabsyl at the N terminus and Lucifer Yellow at the C-terminus, such that for an intact peptide the Lucifer Yellow fluorescence is quenched by the dabsyl. When the peptide is cut by BACE2, the quenching is removed and a fluorescent signal is generated.
The assay was performed as described in Grueninger et al. 2002 at pH 4.5 using a substrate concentration of 5 μM. All FRET-peptides had the format described.
(§1) BACE2 enzyme ectodomain was prepared as described in Ostermann et al [“Crystal Structure of Human BACE2 in Complex with a Hydroxyethylamine Transition-state Inhibitor.” Journal of Molecular Biology 355 (2006) 249-261].

Assay [2] addresses T1, BACE2. Nature of the assay: MR121-peptide cleavage assay. The assay is classed as biochemical. Details: scale not given here. The following applies: substrate peptides labelled with MR121 at N-terminus and tryptophan at C-terminus. On the procedure: In a related assay, a peptide was devised with the same sequence, which was labeled at the N-terminus with MR121 and at the C-terminus with Tryptophan.
Substrate peptides derived from TMEM27 with activity in the MR121-peptide cleavage assay.
as §1

The target in the next assay is BACE1 (Homo sapiens, UniProt P56817). Kind of assay: FRET peptide cleavage assay, BACE1 activity on peptide substrates. To be noted: pH 4.5, substrate 5 μM, FIG. 7. The assay is classed as biochemical.
BACE1, sequence (P56817 46-501, species assumed): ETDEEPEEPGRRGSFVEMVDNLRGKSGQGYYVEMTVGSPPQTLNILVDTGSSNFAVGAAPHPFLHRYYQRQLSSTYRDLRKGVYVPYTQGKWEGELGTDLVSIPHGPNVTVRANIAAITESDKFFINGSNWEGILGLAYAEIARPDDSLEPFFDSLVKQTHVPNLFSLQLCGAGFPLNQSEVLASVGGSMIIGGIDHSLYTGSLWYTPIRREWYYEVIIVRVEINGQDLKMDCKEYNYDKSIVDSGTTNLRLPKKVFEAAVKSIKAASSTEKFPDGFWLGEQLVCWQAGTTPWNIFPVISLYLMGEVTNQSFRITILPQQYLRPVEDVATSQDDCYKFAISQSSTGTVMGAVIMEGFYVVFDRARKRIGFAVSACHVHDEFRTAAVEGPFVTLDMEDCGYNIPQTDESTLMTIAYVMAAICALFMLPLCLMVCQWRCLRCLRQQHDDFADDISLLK
The test system of a further assay is Min6 cells. Nature of the assay: Proliferation assay in Min6 cells (EdU, confocal microscopy). Type of assay: cell-based. To be noted: 48 hours, p<10-6, FIG. 5a.

We go through 12 substances from patent US20110229922A1, “SCREENING ASSAYS FOR THE IDENTIFICATION OF BACE2 INHIBITORS” (priority 2008, published 2011).

No end group written: not given here. MR121 = fluorophore label at the N-terminus

Description for Min6 cells: 50′000 MING B1 cells per well were seeded in a 96-well plate using standard trypsinization method. The following day, serum-supplemented complete medium (described earlier) was removed and replaced by serum-free and low glucose medium (Invitrogen) supplemented with the compound as follows: 10 nM exendin-4 (Sigma-Aldrich) as a positive control was added to the cells every 12 h, to avoid degradation. […] As an absolute positive control cells were also grown in FCS supplemented standard media. Cells were incubated for 48 hours.
After this incubation, medium was discarded and replaced by the serum-supplemented medium containing 10 nM EdU (Invitrogen) and incubated for 1 h at 37° C. […]
Spinning-disc confocal fluorescence microscopy of the 96-well plate has been performed on the high-throughput automated imaging system Opera™ QEHS (PerkinElmer Cellular Technologies, Hamburg, Germany). […] In each well, typically 12 pairs of scanning images were recorded through a UAPO 20×NA 0.7 water immersion objective lens (Olympus) and optimized filter sets by 2 independent high quantum-efficiency 12 bit CCD cameras (1.3 mega pixels monochrome). […]
Confocal micrographs were analyzed using the proprietary software environment of PerkinElmer's Opera (Acapella 1.8, PerkinElmer Cellular Technologies, Hamburg, Germany). […]

For “dabsyl-NSLEFLGIQP-lucifer yellow: FRET peptide based on the sequence of ACE2 at the site equivalent to the BACE2 cleavage site in TMEM27 (dabsyl-NSLEFLGIQP-{Lucifer Yellow})”, the “BACE2 activity against FRET peptide substrate” value with BACE2 [1] is “efficiency greater than that of the TMEM27 substrate”.

Regarding “C TLEFLKI W: Substrate peptide derived from TMEM27 for MR121-peptide cleavage assay (MR121-CTLEFLKIW)”, the Relative activity with BACE2 [2] is 28. Still for that read-out and setting: to “C QTLEFLKI W: Substrate peptide derived from TMEM27 for MR121-peptide cleavage assay (MR121-CQTLEFLKIW)” belongs 96; to “C QELEFLKI W: Substrate peptide derived from TMEM27 for MR121-peptide cleavage assay (MR121-CQELEFLKIW)”, 100; to “C QTLEFLK W: Substrate peptide derived from TMEM27 for MR121-peptide cleavage assay (MR121-CQTLEFLKW)”, 62. For “C QTLEFLKIPS W: Substrate peptide derived from TMEM27 for MR121-peptide cleavage assay (MR121-CQTLEFLKIPSW)”, the Relative activity with BACE2 [2] was determined as 91. As to “C LEFLKI W: Substrate peptide derived from TMEM27 for MR121-peptide cleavage assay (MR121-CLEFLKIW)”, the Relative activity with BACE2 [2] turned out to be 24.

Consider “dabsyl—QTLEFLKIPS—LucY: FRET peptide based on the TMEM27 sequence, dabsyl at N terminus and Lucifer Yellow at C-terminus (dabsyl-QTLEFLKIPS-{Lucifer Yellow})”, for which, in the assay with BACE2 [1], the “BACE2 activity against FRET peptide substrate” value is listed as “high activity”. In the assay with BACE1, the “BACE1 activity against FRET peptide substrate” value is on record as “insignificant activity”. In the case of “C QTLEFLKIP W: Substrate peptide derived from TMEM27 for MR121-peptide cleavage assay (MR121-CQTLEFLKIPW)”, in the assay with BACE2 [2], the Relative activity was found to be 75. Still for that read-out and setting: then “C QTLEF W: Substrate peptide derived from TMEM27 for MR121-peptide cleavage assay (MR121-CQTLEFW)”, with 21.

Turning to exendin-4, the “proliferation rate compared to basal proliferation rate of starved cells” value in the assay with Min6 cells was “highly significant proliferation increase”. “C QTLEFL W: Substrate peptide derived from TMEM27 for MR121-peptide cleavage assay (MR121-CQTLEFLW)” displayed a Relative activity in the assay with BACE2 [2] of 32.
